# Assay results published in the supplement of paper PMC10567573.
# B1: PSMB5 addK (peptide)
# chain: DGWIRVSSDNVADLHEKYSGSTPK
# B2: BEX2 addK (peptide)
# chain: HSLRAVSTDPPHHDHHDEFCLMPK
# B3: TRPA1 addK (peptide)
# chain: EQRNSRWNTVLRAVKAKTHHLEPK
# B4: SNF8 addK (peptide)
# chain: LPALFTDLYSQEITAEEAREALPK
# B5: POLD2 addK (peptide)
# chain: CQPISFSGFGAEDDDLGGLGLGPK
# Test: protein stability index of a GFP-peptide fusion (GPS, HEK-293T) (PSI 1-6); higher = more stable
# Conditions: c terminus: native
# 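Further: lentivirally expressed fusion library, cells FACS-sorted into six equal-sized GFP/DsRed ratio bins, PSI computed from sequencing read fractions per bin weighted by bin number.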
protein,measurement,setting,value
B1,protein stability index,parent: NP_002788.1,4.81
B2,protein stability index,parent: NP_116010.1,4.67
B3,protein stability index,parent: NP_015628.1,5.03
B4,protein stability index,parent: NP_009172.2,5.17
B5,protein stability index,parent: NP_006221.1,4.81
